Source: patent US20180230213A1 (AVEO PHARMACEUTICALS, published 2018)

Tests used:
Assay in all cases: BLI (Octet QK): rhNotch3 on the sensor, IgG in place of a Notch3 antibody, then the ligand in solution
[1] = biological target: T1, His tagged rhDLL4 (human, UniProt Q9NR61 27-524)
T1 construct: also called R&D Cat. No. 1506-D4-050
Method: (§1) The 4F11 antibody was tested for its ability to inhibit the binding of rhNotch3 binding to human Jag1, Jag2, DLL1 and DLL4. Binding measurements were made by bio-layer interferometry (BLI), using a FortéBio Octet® QK instrument (ForteBio, Menlo Park, Calif.). The ligands tested were rhJag1-Fc (R&D Cat. No. 1277-JG-050), rhJag2-Fc (R&D Cat. No. 1726-JG-050), rhDLL1-Fc (R&D Cat. No. 5026-DL-050), and His tagged rhDLL4 (R&D Cat. No. 1506-D4-050).
(§2) To determine the degree of inhibition of Notch3-ligand binding by antibody 4F11, the Octet sensors were loaded with recombinant human Notch3, and the antibody was allowed to bind, as described in Example 4. In positive control samples, a commercially available Notch3 polyclonal antibody capable of blocking ligand binding to recombinant human Notch3 (Notch3 Specific Control) was used instead of the 4F11 antibody. Then sensors were immersed in 500 ug/ml human IgG, to block non-specific binding. Ligands were prepared at a concentration of 400 nM in PBS containing 3% BSA, and were allowed to bind. The on-rate and off-rate for ligand binding were detected using the Octet QK instrument and software. The 4F11 antibody blocked binding of all four ligands to rhNotch3-Fc (FIG. 5A-5D).

[2] = biological target: T2, rhJag2-Fc (human, UniProt Q9Y219 27-1080, limits assumed)
T2 construct: also called R&D Cat. No. 1726-JG-050
T2 sequence (Q9Y219 27-1080 limits assumed): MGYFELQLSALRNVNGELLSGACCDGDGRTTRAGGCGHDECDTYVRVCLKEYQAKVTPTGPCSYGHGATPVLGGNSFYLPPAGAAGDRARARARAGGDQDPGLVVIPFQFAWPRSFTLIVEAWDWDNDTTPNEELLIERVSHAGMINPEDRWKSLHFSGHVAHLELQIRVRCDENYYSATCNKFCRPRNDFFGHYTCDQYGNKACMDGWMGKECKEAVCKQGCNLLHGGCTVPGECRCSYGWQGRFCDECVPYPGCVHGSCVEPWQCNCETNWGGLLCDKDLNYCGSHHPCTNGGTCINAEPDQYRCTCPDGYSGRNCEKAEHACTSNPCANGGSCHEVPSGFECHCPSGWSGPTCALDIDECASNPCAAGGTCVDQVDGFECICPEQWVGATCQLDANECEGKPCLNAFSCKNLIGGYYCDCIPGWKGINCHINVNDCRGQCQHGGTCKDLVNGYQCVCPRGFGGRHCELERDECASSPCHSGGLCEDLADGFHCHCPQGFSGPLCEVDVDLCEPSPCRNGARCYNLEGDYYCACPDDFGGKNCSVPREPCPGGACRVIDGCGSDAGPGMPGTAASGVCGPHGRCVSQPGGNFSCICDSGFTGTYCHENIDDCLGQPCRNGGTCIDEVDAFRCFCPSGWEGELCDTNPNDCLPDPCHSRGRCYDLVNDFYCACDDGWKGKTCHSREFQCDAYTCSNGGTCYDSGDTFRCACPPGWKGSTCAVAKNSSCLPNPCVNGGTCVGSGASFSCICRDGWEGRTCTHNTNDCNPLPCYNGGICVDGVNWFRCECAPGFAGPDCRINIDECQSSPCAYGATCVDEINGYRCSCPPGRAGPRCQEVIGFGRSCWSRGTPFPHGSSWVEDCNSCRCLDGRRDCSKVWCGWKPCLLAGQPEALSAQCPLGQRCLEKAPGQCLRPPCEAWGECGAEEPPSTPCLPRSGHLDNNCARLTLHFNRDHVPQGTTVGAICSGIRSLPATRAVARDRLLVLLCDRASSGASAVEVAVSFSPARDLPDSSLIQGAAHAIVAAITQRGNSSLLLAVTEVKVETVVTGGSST
Method: as §1, §2

[3] = biological target: T3, rhJag1-Fc (human, UniProt P78504 32-1046, limits assumed)
T3 construct: also called R&D Cat. No. 1277-JG-050
Method: as §1, §2

Measured: binding result

T1 sequence (Q9NR61 27-524 limits assumed): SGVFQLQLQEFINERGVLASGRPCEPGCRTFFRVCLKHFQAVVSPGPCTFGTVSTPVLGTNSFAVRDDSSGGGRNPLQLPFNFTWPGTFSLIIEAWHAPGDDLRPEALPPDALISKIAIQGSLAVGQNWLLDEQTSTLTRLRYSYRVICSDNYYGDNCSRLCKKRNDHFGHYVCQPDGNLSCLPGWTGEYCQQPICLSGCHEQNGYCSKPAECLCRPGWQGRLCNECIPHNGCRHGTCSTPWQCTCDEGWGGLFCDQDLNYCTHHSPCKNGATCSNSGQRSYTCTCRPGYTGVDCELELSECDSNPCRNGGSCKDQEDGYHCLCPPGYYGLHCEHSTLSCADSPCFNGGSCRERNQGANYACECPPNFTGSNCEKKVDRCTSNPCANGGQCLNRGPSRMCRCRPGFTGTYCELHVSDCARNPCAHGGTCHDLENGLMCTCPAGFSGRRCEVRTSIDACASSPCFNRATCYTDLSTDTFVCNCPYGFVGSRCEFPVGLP

B1: recombinant human Notch3 extracellular domain (containing EGF like domains 1-11) Fc fusion protein (Fc fusion, UniProt Q9UM47 40-467, looked up, not shown: a dimerising Fc or GST)
chain: APPCLDGSPCANGGRCTQLPSREAACLCPPGWVGERCQLEDPCHSGPCAGRGVCQSSVVAGTARFSCRCPRGFRGPDCSLPDPCLSSPCAHGARCSVGPDGRFLCSCPPGYQGRSCRSDVDECRVGEPCRHGGTCLNTPGSFRCQCPAGYTGPLCENPAVPCAPSPCRNGGTCRQSGDLTYDCACLPGFEGQNCEVNVDDCPGHRCLNGGTCVDGVNTYNCQCPPEWTGQFCTEDVDECQLQPNACHNGGTCFNTLGGHSCVCVNGWTGESCSQNIDDCATAVCFHGATCHDRVASFYCACPMGKTGLLCHLDDACVSNPCHEDAICDTNPVNGRAICTCPPGFTGGACDQDVDECSIGANPCEHLGRCVNTQGSFLCQCGRGYTGPRCETDVNECLSGPCRNQATCLDRIGQFTCICMAGFTGTYCE
notes: domain: EGF like domains 1-11; also called rhNotch3-Fc; rhNotch3
binds: all assays above
